These results are taken from a protein production outcome set (Wang et al. 2014).

The series is described as follows: label from the status in PepcDB records.
In the case of “MGSGGVVHCRCAKCFCYPTKRRIRRRPRNLTILSLPEDVLFHILKWLSVEDILAVRAVHSQLKDLVDNHASVWACASFQELWPSPGNLKLFERAAEKGNFEAAVKLGIAYLYNEGLSVSDEARAEVNGLKASRFFSLAERLNVGAAPFIWLFIRPPWSVSGSCCKAVVHESLRAECQLQRTHKASILHCLGRVLSLFEDEEKQQQAHDLFEEAAHQGCLTSSYLLWESDRRTDVSDPGRCLHSFRKLRDYAAKGCWEAQLSLAKACANANQLGLEVRASSEIVCQLFQASQAVSKQQVFSVQKGLNDTMRYILIDWLVEVATMKDFTSLCLHLTVECVDRYLRRRLVPRYRLQLLGIACMVICTRFISKEILTIREAVWLTDNTYKYEDLVRMMGEIVSALEGKIRVPTVVDYKEVLLTLVPVELRTQHLCSFLCELSLLHTSLSAYAPARLAAAALLLARLTHGQTQPWTTQLWDLTGFSYEDLIPCVLSLHKKCFHDDAPKDYRQVSLTAVKQRFEDKRYGEISQEEVLSYSQLCAALGVTQDSPDPPTFLSTGEIHAFLSSPSGRRTKRKRENSLQEDRGSFVTTPTAELSSQEETLLGSFLDWSLDCCSGYEGDQESEGEKEGDVTAPSGILDVTVVYLNPEQHCCQESSDEEACPEDKGPQDPQALALDTQIPATPGPKPLVRTSREPGKDVTTSGYSSVSTASPTSSVDGGLGALPQPTSVLSLDSDSHTQPCHHQARKSCLQCRPPSPPESSVPQQQVKRINLCIHSEEEDMNLGLVRL”, the protein production result is listed as “failed”. The same measure for “MGSGWGPLEPWDRLAQPRPATGRLAAPPHCPPALPLHSAAPGSRTGTGAMERTAGKELALAPLQDWGEETEDGAVYSVSLRRQRSQRSTPEGSGDGQTPIPAMDTFLQYRTSKVRALRAARLERLVHELVSGDREQDPGFVPAFLATHRAFVPTARVLGFLLPPPPPPPPPPAGVDSKRTEGQDLNFSKNLRAVVSVLGSWLRDHPQDFRDPPDHQNLGDVRIFLGWAAPGGAEVREAEKLLEDFLKEAKEEQTEGEQRLAWAGPPWAAQSPRSEFAEDYSEEEGLRSEGPELLDFSVDEVAEQLTLMDVELFLRVRSCECLGSMWSQRDRPGAAGISPTVRATVAQFNAVTGCVLGSVLAAPGLAASQRAQRIEKWIRIAQRCRELRNFSSLRAILSALQSNPIYRLKRSWGAVSREPLSVFRKLSQIFSDEDNHLSSRAILSQEETTEGPQGDDCSPGSLPSKLPPGPVPYLGTFLTDLVMLDTALPDMLKGNLINFEKRRKEWEILARIQQLQHRCQHYSLSPRPPILAALRAQRQLSEEQSYRVSRVIEPPAASCPSSPRIRRRISLTKRLSAKLSREKNQSPGGSPGDPPSPTSSVSPGSPPASPRSQDPPPGSPPASPGPQSPSTKLSLSMEPPGPWPMTLTPSSSRTPLLGQQTSEARVIRVSINNNHGNLYRSILLTCQDKAPSVVQRALEKHNVPQPWARDYQLLQVLPGDRELLIPDSANVFYAMNPAAPGDFLLRRKEGTGHTPSASPS”: “failed”; for “MGSIEEVLLEERLIGYLDPGAEKVLARINRPSKIVSTSSCTGRITLIEGEAHWLRNGARVAYKTHHPISRSEVERVLRRGFTNLWLKVTGPILHLRVEGWQCAKSLLEAARRNGFKHSGVISIAEDSRLVIEIMSSQSMSVPLVMEGARIVGDDALDMLIEKANTILVESRIGLDTFSREVEELVECF”: “not failed”; for “MGSKPSSLADEVAIIVEQVDKVMGMVFWCPLYWESIELLAKDEVSRAIFYGLTEGCKLDYLKYKTKASMVPEMTRFYS”: “not failed”. Consider “MGSKTSPKWISAILRWPLLWHAARLALVSAYILGGFTKLLDLAGAAAEQEHFGLYPGWLWASAAILVELFGSLLVVINRWVWLGAGGLGILTFVAMLTANAFWTMGGHERFMATNAFFEHLGLIAGLVIVTILSEEAVTRPKSGAGSQAIQGVSR”, for which the protein production entry is listed as “failed”. Next, “MGSLRLLADIQGEDLESLYGYAKQLFDGGEIAAARNVYQLLSTLDHWNFDYLLALGLCHQRLGAHNEAVVCFGRAGLIKVDDPRAAFYAGISYRLDGNAEYASKAFKAAINWCGEQIDYQAIKASAVDMLALQQEEVPLEHHHHHH”: “failed”. Next, “MGSSHHHHHHSSGENLYFQGHMDVLASGEKSRMLFERTKELFPGGVNSPVRAAVKPYPFYVKRGEGAYLYTVDGARIVDLVLAYGPLILGHKHPRVLEAVEEALARGWLYGAPGEAEVLLAEKILGYVKRGGMIRFVNSGTEATMTAIRLARGYTGRDLILKFDGCYHGSHDAVLVAAGSAAAHYGVPTSAGVPEAVARLTLVTPYNDVEALERVFAEYGDRIAGVIVEPVIANAGVIPPRREFLAALQRLSRESGALLILDEVVTGFRLGLEGAQGYFNIEGDIIVLGKIIGGGFPVGAVAGSREVMSLLTPQGKVFNAGTFNAHPITMAAGLATLKALEEEPVYSVSREAAKALEEAASEVLDRTGLPYTINRVESMMQLFIGVEEVSNAAQARKADKKFYVKLHEEMLRRGVFIAPSNLEAVFTGLPHQGEALEIAVEGLRSSLKTVLGS”: “not failed”. Next, “MGSSHHHHHHSSGLVPRGSHMLEGIIEEKALFVTCGATVPFPKLVSCVLSDEFCQELIQYGFVRLIIQFGRNYSSEFEHLVQERGGQRESQKIPIDQFGCGDTARQYVLMNGKLKVIGFDFSTKMQSIIRDYSDLVISHAGTGSILDSLRLNKPLIVCVNDSLMDNHQQQIADKFVELGYVWSCAPTETGLIAGLRASQTEKLKPFPVSHNPSFERLLVETIYS”: “not failed”; “MGSSHHHHHHSSGLVPRGSPQQLVERLQEEKRIEAQKRKERQEAHLYMQVQIVAEDQFCGHQGNDMYDEEKVKYTVFKVLKNSSLAEFVQSLSQTMGFPQDQIRLWPMQARSNGTKRPAMLDNEADGNKTMIELSDNENPWTIFLET”: “not failed”; “MGSSHHHHHHSSGRENLYFQGEPPPSVRREFPLKVRLSTGKDVRLSASLPDTVGQLKRQLHAQEGIEPSWQRWFFSGKLLTDRTRLQETKIQKDFVIQVIIN”: “not failed”.

Take “MGSSHHHHHHSSGRENLYFQGMLLHSVQTPRGEILNVSEQEARDVFGASEQAIADARKATILQTLRIERDERLRACDWTQVQDVVLTADQKATWAKYRQALRDLPETVTDLSQIVWPQLPV”: the protein production entry was “not failed”. “MGSSHHHHHHSSGRENLYFQGMNIGRLRDRITIQTLKQTRDITGEILETWEDGHTLWASVNMVSSKEAISSGAELAIGTVRIWIRYRKDINATSRIKVSTGPLAGRVLNIIGQPLPDAARTRLEILCREGAEK”: the protein production result is listed as “not failed”. As for “MGSSHHHHHHSSGRENLYFQGSQESIQNKISQCKFSVCPERLQCPLEAIQCPITLEQPEKGIFVKNSDGSDVCTLFDAAAFSRLVGEGLPHPLTREPITASIIVKHEECIYDDTRGNFIIKGN”, the protein production entry is on record as “not failed”. With “MGSSHHHHHHSSGRENLYFQGSQRPVDRNPPRINLMPTGANRVAMRNRGNNEADAALQALAQNGINMEDLRAALEAYIVWLRPIPLDIANALEGVGITPRFDNPEEAKVDNPLMNLSSALKRRLDA”, the protein production entry is recorded as “not failed”.

Take “MGSTQYWDLKSGVCTRIFGGHQGTITCMDLCKNRLVSGGRDCQVKVWDVDTGKCLKTFRHKDPILATRINDTYIVSSCERGLVKVWHIAMAQLVKTLSGHEGAVKCLFFDQWHLLSGSTDGLVMAWSMVGKYERCLMAFKHPKEVLDVSLLFLRVISACADGKIRIYNFFNGNCMKVIKANGRGDPVLSFFIQGNRMVVNTESNVLMFQFEHIKWQYAVEKTKQKKNKEKEEEKEENSLMEILSKCNIQVHSPRESVSSKQTVIQELLPGKPPKSRVLLKPAKFSSAVLIEELQSQGKSKSPRRDADDVEKAQKQGQLETPGKLPSHPKKKSWKIPMSPDQFLLTVSALQHARNSGEFAYPCRPQTEITDVWGPSISYPRKVLNFKGKSIQRAVDRLRLSNPPIDVKRTSIPLEIQKLQPNLKISLHSPRAQSTIPQPMIIRSRFSGSLKGGDQVTSSIERAVCSTGPLTSMQVIKPNRMLAPQVGTATLSLKKERPRIYTALDPFRVNAEFVLLTVKEEKEHQEAKMKEYQARESTGVVDPGKASKAAWIRKIKGLPIDNFTKQGKTAAPELGQNVFI”: the protein production result is listed as “failed”.

As to “MGSVQVKAHADEQGRAVVRASIEIAAPPSVVFGVILDCGRAARMSPGVKRCRVVSRAADGSEVREHTVKWGFFLPALQSRSRLSLQPDREIRFTCIGGDIRACDGFWRLEPLDGGMRTRVTYDLWATAPYAAPAGLVSSLMRRTVPQSLAALRRECEGLEHHHHHH”, the protein production result is recorded as “failed”. The same measure for “MGTDKFNNIKIDKYENLINVLKTGDIFLCSGNYLVSKLIKKVSESMFSHTGIIVKWGEHTLIMESVEDDGVRIVPLEHYIKNYENSNNRYNGSLFIARHELLQNVNDDSEMIRNLIKVGFSLLNSGYDKNEIAQIVARIGLGIGRHEDNNEYICSEFVNECFKKIGVEFLTDSEGFIFPEHIAADHHVLPIAQIE”: “not failed”; for “MGTEAEQPSPPAQQQDQENPPLCKAQNPKPARLYRFVLIFVAGSLAAWTFHALSSTNLVWKLRQLHHLPTAHYLQTRDEFALYSVEELNAFKEFYDKSVSDSVGASYTEAEQTNIKEALGALRMAQDLYLAGKDDKAARLFEHALALAPRHPEVLLRYGEFLEHNQRNIVLADQYYFQALTISPSNSEALANRQRTADVVQSLDERRLESLDSKRDALSAIHESNGALRRAKKEAYFQHIYHSVGIEGNTMTLAQTRSILETRMAVDGKSIDEHNEILGMDLAMKYINASLVQKIDITIKDILELHRRVLGHVDPIEGGEFRRNQVYVGGHIPPGPGDLALLMQRFERWLNSEHSSTLHPVNYAALAHYKLVHIHPFVDGNGRTSRLLMNTLLMRAGYPPVIIPKQQRSKYYHFLKLANEGDIRPFVRFIADCTEKTLDLYLWATSDLPQQIPMLIQTESEAGERLAQMQSPNVAQRSSILEFYESGSGDLP”: “failed”.

Take “MGTNKQTALLPTVNQAITDGAVFGVSYSLLGPQENALHVIGYQGAGDDRLPLLPQARYDLASLTKVVGTTTRLLQLLIAGKLELTQPIGSLVSGLRYPQLTIEQLMLHRSGLPADVPDAHALDQAGLVHAVKTMAAVAAPDTETIYSDLNYIILGWAIAALDGDLATSLTQHIFAPLGMHATGYRPQHVAAADFVPTENVPARGGIIRGTVHDHKAFLLDGVSGHAGLFATLADLTIFTRLLAGLPVTNGDHVLPPAAFVLLDRFCKGGRTLGWRCWAQGRHQYWHTGFTGTSIAFDRDTQCGFVCLTNRIYPSRANRAWLAVRRQLLTQFFEVATSWPD”: the protein production entry is recorded as “failed”.

Consider “MGTQRSDTRDQSARLMRRATYASVTVAMTLVVAKLVAWVLTDSVALLSTLIDSLIDVGASLVTLLAVREALTPADEEHRFGHGKAEPLAGLGQAAFIAGSGIFLVIEAAGRLTAPLPVQRGEIGIAVMVFSILATIGLVAYQRRVIAQTKSVAISADSLHYAGDLLINLSVIVSLGLAMTVDLPILDPLFAIAIALWLMKNAWTIGANSVNLLMDRELPPEDRVRIIKLALENPRVFDIHDLRTRSSGPQTFIQLNVELDGEMTLSASHAIVTEIENRLRAAFPGAEVLIHQDPAGIQEDHHPDFAYEDTSALLEADAASQPRRL”, for which the protein production result is on record as “failed”. Next, “MGTRRRRGRKAIAGLPGYLLLLVLVLVWLFQELRPGPVPPAETGEAEVYFMPEEGPRAKARLLALMDGARESLEGAFYEFRDLEVAQGLLRAKARGVRVRLYGESDYREDFRRYLVAASLGQREEPPRVRFAELKERVKPLSLDCEEVVGIPICYDEREGFMHHKFLVVDGRAVWTGSTNMTWNAFARNNENSLLLPSPTLAQGYAREFEALFGGQKEGLGQPVAFALEGVEGVAYFSPRGGRLAREALLKRLSEAQREVLVAAFVLTDREVLEALLQARRRGAEVKVLLETRNLGTSREEALLEEGLEVRQDANPYTMHHKVMLLDGTYVVTGSYNFSVRAHEVNNENLLVLKSPSLAERYRKEVLRLWEAGSPL”: “failed”.
